According to patent publication US20250262210A1 (TRUSTEES OF COLUMBIA UNIVERSITY IN THE CITY OF NEW YORK, published 2025):

Key:
Test in all cases: IP/MS, LZTR1 wild type-FLAG, U87
[1] = target: ALPK2 (human, UniProt Q86TB3 1-2170)
Procedure, shortened: (§1)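 Gel slices were reduced with 5 mM DTT, alkylated with 11 mM IAA and digested overnight at 37° C. with trypsin. Peptides were analysed on an Orbitrap Fusion Tribrid by LC-MS/MS.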

[2] = target: T1, FKBP15 (human, UniProt Q5T1M5 1-1219, limits assumed)
T1 sequence (looked up): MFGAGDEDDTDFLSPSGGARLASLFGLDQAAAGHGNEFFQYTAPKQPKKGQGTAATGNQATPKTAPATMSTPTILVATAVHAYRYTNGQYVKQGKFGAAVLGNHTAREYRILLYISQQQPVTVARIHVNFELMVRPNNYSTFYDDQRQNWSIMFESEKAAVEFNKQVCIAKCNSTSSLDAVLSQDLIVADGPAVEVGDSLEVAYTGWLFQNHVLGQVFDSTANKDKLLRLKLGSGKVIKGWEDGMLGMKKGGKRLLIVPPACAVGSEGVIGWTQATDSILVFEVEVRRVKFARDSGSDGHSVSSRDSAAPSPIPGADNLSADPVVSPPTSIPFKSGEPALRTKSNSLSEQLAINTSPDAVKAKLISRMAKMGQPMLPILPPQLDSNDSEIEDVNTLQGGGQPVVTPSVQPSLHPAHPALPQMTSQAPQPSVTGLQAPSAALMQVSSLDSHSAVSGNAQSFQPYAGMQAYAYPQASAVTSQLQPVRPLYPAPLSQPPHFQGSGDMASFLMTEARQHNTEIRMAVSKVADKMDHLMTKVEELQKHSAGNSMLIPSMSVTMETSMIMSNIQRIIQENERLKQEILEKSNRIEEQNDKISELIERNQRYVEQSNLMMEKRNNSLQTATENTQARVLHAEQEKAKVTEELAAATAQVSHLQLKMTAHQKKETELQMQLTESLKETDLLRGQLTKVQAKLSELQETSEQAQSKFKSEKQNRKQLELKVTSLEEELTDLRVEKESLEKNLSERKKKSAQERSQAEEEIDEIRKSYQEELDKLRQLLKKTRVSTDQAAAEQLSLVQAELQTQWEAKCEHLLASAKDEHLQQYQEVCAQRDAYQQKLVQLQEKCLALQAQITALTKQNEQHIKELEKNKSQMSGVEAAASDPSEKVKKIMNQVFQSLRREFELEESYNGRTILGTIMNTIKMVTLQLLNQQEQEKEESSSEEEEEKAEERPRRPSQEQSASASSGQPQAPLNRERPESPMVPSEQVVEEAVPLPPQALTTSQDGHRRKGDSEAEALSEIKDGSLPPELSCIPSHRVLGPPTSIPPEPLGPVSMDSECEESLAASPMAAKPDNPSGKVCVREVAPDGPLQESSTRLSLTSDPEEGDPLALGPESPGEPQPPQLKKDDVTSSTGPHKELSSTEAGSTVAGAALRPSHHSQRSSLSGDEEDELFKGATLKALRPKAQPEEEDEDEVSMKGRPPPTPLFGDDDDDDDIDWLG
Procedure, shortened: as §1

[3] = target: KNL1 (human, UniProt Q8NG31 1-2342, limits assumed)
Procedure, shortened: as §1

[4] = target: THADA (human, UniProt Q6YHU6 1-1953, limits assumed)
Procedure, shortened: as §1

Measured: binding result

Sequence of ALPK2 (Q86TB3 whole entry, the tested form may be a part): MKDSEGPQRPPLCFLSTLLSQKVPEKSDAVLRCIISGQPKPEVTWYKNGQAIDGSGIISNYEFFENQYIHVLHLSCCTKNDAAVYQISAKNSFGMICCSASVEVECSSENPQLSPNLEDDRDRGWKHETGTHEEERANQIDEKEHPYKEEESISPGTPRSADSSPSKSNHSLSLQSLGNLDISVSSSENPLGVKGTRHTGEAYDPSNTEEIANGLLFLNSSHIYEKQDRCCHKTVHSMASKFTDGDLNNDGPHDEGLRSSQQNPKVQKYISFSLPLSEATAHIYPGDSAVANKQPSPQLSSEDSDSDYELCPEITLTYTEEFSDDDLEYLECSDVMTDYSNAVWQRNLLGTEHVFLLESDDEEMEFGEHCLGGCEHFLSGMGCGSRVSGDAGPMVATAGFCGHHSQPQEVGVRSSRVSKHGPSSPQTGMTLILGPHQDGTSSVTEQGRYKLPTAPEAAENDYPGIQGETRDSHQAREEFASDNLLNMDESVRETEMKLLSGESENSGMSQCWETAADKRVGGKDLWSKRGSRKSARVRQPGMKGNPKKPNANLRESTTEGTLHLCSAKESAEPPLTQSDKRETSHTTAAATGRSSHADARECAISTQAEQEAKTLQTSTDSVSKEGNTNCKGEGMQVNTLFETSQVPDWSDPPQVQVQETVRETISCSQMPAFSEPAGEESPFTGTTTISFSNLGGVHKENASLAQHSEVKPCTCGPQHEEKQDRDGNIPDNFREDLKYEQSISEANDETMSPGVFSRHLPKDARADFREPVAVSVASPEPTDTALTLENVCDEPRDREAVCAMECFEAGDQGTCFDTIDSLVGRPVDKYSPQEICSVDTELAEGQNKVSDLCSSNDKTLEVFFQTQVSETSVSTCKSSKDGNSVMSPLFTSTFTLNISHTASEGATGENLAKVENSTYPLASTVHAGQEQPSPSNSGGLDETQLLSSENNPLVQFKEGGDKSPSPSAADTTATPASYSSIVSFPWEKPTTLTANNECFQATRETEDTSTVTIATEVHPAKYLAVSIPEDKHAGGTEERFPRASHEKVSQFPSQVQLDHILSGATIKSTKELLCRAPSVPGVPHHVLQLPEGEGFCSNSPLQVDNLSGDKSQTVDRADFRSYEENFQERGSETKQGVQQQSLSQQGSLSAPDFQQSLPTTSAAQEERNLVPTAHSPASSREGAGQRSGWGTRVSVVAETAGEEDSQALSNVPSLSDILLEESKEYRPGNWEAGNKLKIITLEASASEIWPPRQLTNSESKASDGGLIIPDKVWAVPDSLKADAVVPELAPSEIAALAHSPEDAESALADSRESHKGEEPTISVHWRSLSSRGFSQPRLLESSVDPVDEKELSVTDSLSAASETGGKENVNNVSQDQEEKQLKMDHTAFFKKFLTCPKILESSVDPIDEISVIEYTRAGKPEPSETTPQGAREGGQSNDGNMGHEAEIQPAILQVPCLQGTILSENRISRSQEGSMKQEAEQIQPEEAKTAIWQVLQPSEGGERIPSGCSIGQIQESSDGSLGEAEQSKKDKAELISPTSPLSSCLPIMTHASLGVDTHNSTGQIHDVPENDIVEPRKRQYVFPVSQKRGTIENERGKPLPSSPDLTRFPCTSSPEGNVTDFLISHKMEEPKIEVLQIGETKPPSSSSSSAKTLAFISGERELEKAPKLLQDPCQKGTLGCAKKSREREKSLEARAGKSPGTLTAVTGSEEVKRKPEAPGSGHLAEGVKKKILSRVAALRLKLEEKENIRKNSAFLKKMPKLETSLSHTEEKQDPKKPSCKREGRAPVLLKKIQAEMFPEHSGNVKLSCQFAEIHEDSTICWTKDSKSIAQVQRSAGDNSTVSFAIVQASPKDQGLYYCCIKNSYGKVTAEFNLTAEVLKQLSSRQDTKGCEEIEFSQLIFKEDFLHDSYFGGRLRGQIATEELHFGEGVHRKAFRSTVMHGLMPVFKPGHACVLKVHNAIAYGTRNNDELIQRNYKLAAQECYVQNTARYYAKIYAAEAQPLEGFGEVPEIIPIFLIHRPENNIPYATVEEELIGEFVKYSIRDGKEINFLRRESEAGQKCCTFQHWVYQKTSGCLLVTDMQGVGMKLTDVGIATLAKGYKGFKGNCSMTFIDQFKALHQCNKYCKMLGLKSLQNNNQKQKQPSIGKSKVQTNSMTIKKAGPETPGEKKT
Sequence of KNL1 (Q8NG31 whole entry): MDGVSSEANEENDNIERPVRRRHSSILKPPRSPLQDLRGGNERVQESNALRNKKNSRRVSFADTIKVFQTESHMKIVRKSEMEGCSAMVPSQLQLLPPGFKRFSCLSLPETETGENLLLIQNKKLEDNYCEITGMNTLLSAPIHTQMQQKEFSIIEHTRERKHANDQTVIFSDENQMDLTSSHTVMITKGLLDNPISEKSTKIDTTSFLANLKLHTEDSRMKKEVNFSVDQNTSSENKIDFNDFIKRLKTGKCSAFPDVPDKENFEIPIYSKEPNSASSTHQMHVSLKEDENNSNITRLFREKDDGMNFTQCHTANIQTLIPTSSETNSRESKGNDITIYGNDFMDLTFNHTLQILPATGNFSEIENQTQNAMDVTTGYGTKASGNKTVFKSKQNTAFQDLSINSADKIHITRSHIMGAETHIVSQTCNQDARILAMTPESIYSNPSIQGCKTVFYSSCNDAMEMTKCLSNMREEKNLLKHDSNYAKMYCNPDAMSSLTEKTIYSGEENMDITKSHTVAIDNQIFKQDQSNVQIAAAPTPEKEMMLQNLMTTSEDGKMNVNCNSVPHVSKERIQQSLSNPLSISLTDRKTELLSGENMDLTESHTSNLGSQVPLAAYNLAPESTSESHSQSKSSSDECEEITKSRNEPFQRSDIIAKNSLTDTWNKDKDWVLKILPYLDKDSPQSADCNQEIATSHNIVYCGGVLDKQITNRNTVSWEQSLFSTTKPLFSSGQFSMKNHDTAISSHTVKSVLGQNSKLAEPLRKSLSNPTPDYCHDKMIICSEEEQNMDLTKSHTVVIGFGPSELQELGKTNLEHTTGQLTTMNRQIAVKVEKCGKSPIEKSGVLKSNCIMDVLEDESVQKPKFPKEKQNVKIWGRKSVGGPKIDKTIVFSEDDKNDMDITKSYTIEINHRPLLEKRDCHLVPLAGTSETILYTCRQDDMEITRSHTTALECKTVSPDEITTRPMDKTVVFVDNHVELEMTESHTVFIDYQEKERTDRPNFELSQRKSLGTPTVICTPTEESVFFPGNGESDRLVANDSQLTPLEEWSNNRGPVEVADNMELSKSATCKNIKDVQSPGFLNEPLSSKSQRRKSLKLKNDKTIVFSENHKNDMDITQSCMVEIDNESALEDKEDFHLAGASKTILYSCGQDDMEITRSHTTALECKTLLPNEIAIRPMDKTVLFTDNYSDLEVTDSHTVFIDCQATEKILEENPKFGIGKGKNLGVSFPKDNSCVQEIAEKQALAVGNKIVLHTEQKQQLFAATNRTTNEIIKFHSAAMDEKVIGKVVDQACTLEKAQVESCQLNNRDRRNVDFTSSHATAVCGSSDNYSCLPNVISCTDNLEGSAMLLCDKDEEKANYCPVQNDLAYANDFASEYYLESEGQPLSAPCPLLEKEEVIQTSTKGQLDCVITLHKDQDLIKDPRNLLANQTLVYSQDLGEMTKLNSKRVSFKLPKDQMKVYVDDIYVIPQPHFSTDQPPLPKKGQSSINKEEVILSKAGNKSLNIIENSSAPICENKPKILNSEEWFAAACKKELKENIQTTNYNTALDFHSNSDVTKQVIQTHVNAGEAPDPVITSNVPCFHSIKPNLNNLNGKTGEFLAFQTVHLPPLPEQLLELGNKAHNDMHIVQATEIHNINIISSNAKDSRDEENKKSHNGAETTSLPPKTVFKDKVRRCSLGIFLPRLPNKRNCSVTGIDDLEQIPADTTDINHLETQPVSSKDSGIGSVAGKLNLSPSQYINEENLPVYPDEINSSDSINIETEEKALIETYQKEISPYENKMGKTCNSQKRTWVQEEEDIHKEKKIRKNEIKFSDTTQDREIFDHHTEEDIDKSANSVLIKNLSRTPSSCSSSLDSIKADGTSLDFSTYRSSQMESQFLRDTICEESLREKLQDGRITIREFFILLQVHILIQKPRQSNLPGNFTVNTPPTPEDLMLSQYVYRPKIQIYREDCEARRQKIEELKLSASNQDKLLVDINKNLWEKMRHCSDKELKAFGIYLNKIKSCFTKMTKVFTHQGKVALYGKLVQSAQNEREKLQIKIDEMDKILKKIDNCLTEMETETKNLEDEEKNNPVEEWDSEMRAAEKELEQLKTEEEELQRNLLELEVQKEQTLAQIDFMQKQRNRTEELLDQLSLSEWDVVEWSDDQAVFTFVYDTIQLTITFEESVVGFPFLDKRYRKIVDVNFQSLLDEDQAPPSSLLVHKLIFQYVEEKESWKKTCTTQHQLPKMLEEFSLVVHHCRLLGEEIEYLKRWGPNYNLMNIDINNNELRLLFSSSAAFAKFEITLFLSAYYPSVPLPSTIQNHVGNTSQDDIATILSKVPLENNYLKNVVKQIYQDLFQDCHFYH

B1: LZTR1-FLAG (other, human, UniProt Q8N653 1-840, looked up)
chain: MAGPGSTGGQIGAAALAGGARSKVAPSVDFDHSCSDSVEYLTLNFGPFETVHRWRRLPPCDEFVGARRSKHTVVAYKDAIYVFGGDNGKTMLNDLLRFDVKDCSWCRAFTTGTPPAPRYHHSAVVYGSSMFVFGGYTGDIYSNSNLKNKNDLFEYKFATGQWTEWKIEGRLPVARSAHGATVYSDKLWIFAGYDGNARLNDMWTIGLQDRELTCWEEVAQSGEIPPSCCNFPVAVCRDKMFVFSGQSGAKITNNLFQFEFKDKTWTRIPTEHLLRGSPPPPQRRYGHTMVAFDRHLYVFGGAADNTLPNELHCYDVDFQTWEVVQPSSDSEVGGAEVPERACASEEVPTLTYEERVGFKKSRDVFGLDFGTTSAKQPTQPASELPSGRLFHAAAVISDAMYIFGGTVDNNIRSGEMYRFQFSCYPKCTLHEDYGRLWESRQFCDVEFVLGEKEECVQGHVAIVTARSRWLRRKITQARERLAQKLEQEAAPVPREAPGVAAGGARPPLLHVAIREAEARPFEVLMQFLYTDKIKYPRKGHVEDVLLIMDVYKLALSFQLCRLEQLCRQYIEASVDLQNVLVVCESAARLQLSQLKEHCLNFVVKESHFNQVIMMKEFERLSSPLIVEIVRRKQQPPPRTPLDQPVDIGTSLIQDMKAYLEGAGAEFCDITLLLDGHPRPAHKAILAARSSYFEAMFRSFMPEDGQVNISIGEMVPSRQAFESMLRYIYYGEVNMPPEDSLYLFAAPYYYGFYNNRLQAYCKQNLEMNVTVQNVLQILEAADKTQALDMKRHCLHIIVHQFTKVSKLPTLRSLSQQLLLDIIDSLASHISDKQCAELGADI
notes: Expressed in HEK 293T, HeLa or U87 cells; used as cell lysate; also called LZTR1 wild type-FLAG; LZTR1 WT; not shown: FLAG tag at the C-terminus
binds: all assays above
